According to PMC12748774:

What was measured:
[1] = target: JEV CC_FLE sE (G5C/G102C), disulfide-linked dimer (Japanese encephalitis virus (SA-14-14-2 strain)); experiment: cryo-EM structure
[2] = target: JEV CC_FLE sE (G5C/G102C), disulfide-linked dimer (Japanese encephalitis virus (SA-14-14-2 strain)); experiment: SEC; purified sE proteins on a Superose 6 column
[3] = target: WNV CC_FLE sE (G5C/G102C), dimer (West Nile virus); experiment: cryo-EM structure
[4] = target: WNV CC_FLE sE (G5C/G102C), dimer (West Nile virus); experiment: SEC; purified sE proteins on a Superose 6 column
[5] = target: ZIKV CC_Core sE (A264C), disulfide-linked dimer (Zika virus (Brazilian strain SPH2015)); experiment: SEC
[6] = target: ZIKV CC_Core sE (A264C), disulfide-linked dimer (Zika virus (Brazilian Zika SPH2015 strain)); experiment: cryo-EM structure
[7] = target: ZIKV CC_Core sE (A264C), disulfide-linked dimer (Zika virus (Brazilian Zika SPH2015 strain)); experiment: SEC; purified sE proteins on a Superose 6 column
[8] = target: ZIKV CC_Core sE (A264C), disulfide-linked dimer (Zika virus (Brazilian strain SPH2015)); experiment: SDS-PAGE with and without the reducing reagent DTT
[9] = target: ZIKV CC_FLE sE (G5C/G102C), disulfide-linked dimer (Zika virus (Brazilian strain SPH2015)); experiment: SEC
[10] = target: ZIKV CC_FLE sE (G5C/G102C), disulfide-linked dimer (Zika virus (Brazilian Zika SPH2015 strain)); experiment: cryo-EM structure
[11] = target: ZIKV CC_FLE sE (G5C/G102C), disulfide-linked dimer (Zika virus (Brazilian Zika SPH2015 strain)); experiment: SEC; purified sE proteins on a Superose 6 column
[12] = target: ZIKV CC_FLE sE (G5C/G102C), disulfide-linked dimer (Zika virus (Brazilian strain SPH2015)); experiment: SDS-PAGE with and without the reducing reagent DTT

Measured: stoichiometry N

JEV CC_FLE sE (G5C/G102C), disulfide-linked dimer (domain or fragment)
2: [1] | [2]

WNV CC_FLE sE (G5C/G102C), dimer (domain or fragment)
2: [3] | [4]

ZIKV CC_Core sE (A264C), disulfide-linked dimer (domain or fragment)
2: [5] | [6] | [7] | [8]

ZIKV CC_FLE sE (G5C/G102C), disulfide-linked dimer (domain or fragment)
2: [9] | [10] | [11] | [12]
